Laboratory results taken from the Human Domainome abundance scans (Beltran et al. 2025).

B1: Homeobox protein SIX6, residues 134 to 184; numbered along this chain, O95475 (parent)
chain: CFKERTRHLLREWYLQDPYPNPSKKRELAQATGLTPTQVGNWFKNRRQRDR
B2: Death-inducer obliterator 1, residues 263 to 321; numbered along this chain, Q9BTC0 (parent)
chain: GYDPNALYCICRQPHNNRFMICCDRCEEWFHGDCVGISEARGRLLERNGEDYICPNCTI

Variants of: B1
Assay: abundance fitness (aPCA) (normalised: wild type 0, dead -1); higher = more abundant; growth selection in yeast, the domain comes from the species named
Details: Homo sapiens

Abundance fitness, by site and new letter:
C1: F 0.095

Variants of: B2
Assay: as above
Details: Homo sapiens

Abundance fitness: each site, then its substitutions
R47: I 0.058 | E -0.043 | T 0.134 | P 0.186 | K 0.359 | W -0.062 | N -0.05 | G 0.111 | D 0.268 | V 0.188 | A 0.083 | M -0.155 | Q -0.346 | S 0.037 | L 0.079 | F -0.204 | Y -0.286
A40: H -0.182 | M 0.004 | Q -0.315 | G -0.11 | L 0.043 | C 0.151 | W -0.193 | T -0.077 | F -0.262 | R -0.205 | N -0.434 | V -0.146 | P -0.143 | S -0.022 | D -0.019 | Y -0.094
I59: M 0.026 | G -0.218 | L -0.077 | N 0.329 | K 0.424 | A 0.001 | S -0.015 | F -0.122 | D 0.618 | V 0.279 | W -0.414 | R -0.046 | H -0.14
G49: N 0.11 | M -0.002 | Y 0.01 | T -0.047 | C -0.216 | Q -0.145 | F -0.243 | K 0.163 | W -0.462 | E 0.283 | S 0.173 | H 0.1 | R -0.066 | A 0.052 | L -0.089 | D -0.299 | I -0.016 | V -0.199
S38: Y -0.193
C57: N -0.582 | M -0.989 | P -0.828 | G -1.12 | V -0.904 | R -0.769 | E -0.483 | Y -0.903 | W -0.992 | D -0.498 | T -0.509 | A -1.04 | H -0.206 | L -0.705 | Q -0.842 | S -0.848 | I -1.06
R43: H 0.154 | T -0.049 | Q 0.059 | C 0.188 | L 0.029 | E 0.133 | P 0.182 | D -0.292 | F -0.318 | I 0.081 | G 0.103 | N 0.044 | V -0.202 | A 0.143 | K 0.057 | M 0.017 | W -0.132 | Y -0.044 | S 0.114
C54: S -0.723 | I -1 | Y -1.24 | M -0.991 | P -0.821 | E -0.781 | L -1.19 | Q -0.405 | V -0.674 | N -0.811 | T -0.65 | D -0.999 | K -0.571 | G -1.15 | H -0.245
R41: V 0.075 | E 0.085 | I -0.157 | W -0.443 | S 0.041 | C 0.062 | Q -0.193 | G 0.037 | T -0.099 | N 0.24 | L -0.078 | D 0.347 | F -0.133 | M -0.05 | Y -0.065 | K -0.008 | A 0.075 | P 0.135
D51: K -0.216 | S 0.07 | Q 0.135 | C -0.094 | P -0.289 | F -0.203 | W -0.612 | R 0.013 | G 0.088 | L -0.332 | H -0.169 | Y 0.177 | E 0.029 | M -0.367 | N -0.18 | I -0.135 | T -0.004 | A 0.142
E46: T 0.106 | I -0.265 | S -0.064 | F -0.16 | M -0.055 | R 0.021 | L -0.109 | V 0.044 | N -0.009 | P -0.189 | K 0.079 | W -0.265 | G -0.089 | A 0.163 | C 0.155 | Y 0.065 | Q -0.218 | H -0.663
L45: W -0.14 | K -0.173 | H 0.152 | D -0.01 | V 0.016 | R -0.005 | M -0.096 | F -0.295 | P -0.014 | T -0.08 | E 0.075 | S 0.033 | I -0.214 | Y -0.055 | C -0.062 | G -0.068
E50: D -0.005 | K 0.04 | C -0.461 | L -0.201 | H -0.006 | R -0.273 | M -0.157 | V -0.041 | P 0.068 | T 0.037 | Y -0.58 | S -0.192 | W -0.356 | I -0.14 | F -0.019 | G -0.046 | A -0.011 | N -0.027
L44: R 0.08 | Q 0.047 | D -0.063 | S 0.021 | T -0.069 | I -0.238 | N 0.121 | C -0.026 | M 0.029 | V -0.045 | G 0.08 | F 0.097 | P 0.092 | K 0.048 | A 0.03 | W -0.015 | Y -0.028 | H 0.108
T58: Y -0.289 | I 0.111 | F -0.264 | S 0.047 | P 0.014 | G -0.006 | L 0.127 | D 0.138 | V -0.055 | C 0.194 | M -0.115 | K 0.123 | A 0.084 | H 0.046 | R 0.3
E39: D -0.144 | V -0.036 | S -0.061 | W -0.143 | Y -0.22 | Q -0.048 | M -0.21 | R -0.037 | A -0.262 | N -0.017 | L -0.055 | F -0.043 | G -0.217 | P -0.257 | T -0.213 | H -0.277 | I -0.226
P55: G -0.531 | N -0.365 | T 0.083 | M -0.112 | C -0.098 | R 0.019 | H -0.04 | A 0.078 | K 0.265 | Y -0.245 | L -0.011 | D -0.66 | E -0.116 | Q 0.109 | F -0.4 | I -0.156
I53: A 0.059 | Q -0.03 | S 0.02 | N 0.328 | E 0.172 | P -0.419 | L 0.132 | K 0.355 | H -0.093 | G -0.136 | M 0.269 | Y 0.149 | V -0.028 | R -0.024 | C 0.063
G42: L 0.062 | T 0.017 | Q 0.048 | V 0.069 | H 0.245 | P -0.151 | W 0.29 | S -0.051 | F -0.029 | E 0.25 | R 0.315 | C 0.065 | M 0.096 | D -0.044 | N 0.334 | Y 0.067 | I 0.193
Y52: M -0.598 | T -0.03 | H -0.493 | K -0.181 | Q -0.256 | E -0.172 | R -0.227 | W 0.09 | I -0.196 | L -0.032 | F 0.009 | N -0.334 | V -0.151 | G -0.357 | C -0.275 | S -0.235
N56: C -0.014 | W -0.002 | L -0.22 | G 0.064 | R -0.126 | P -0.121 | E -0.007 | Y 0.021 | A -0.037 | M -0.138 | Q -0.155 | S 0.122 | K -0.525 | T -0.01 | H -0.048
